This test addresses T1, FKBP12 drug-induced heterodimerization domain (DmrA) (Homo sapiens (Human), UniProt P62942 2-108).
T1 construct: also called FKBP12-DmRA; FKBP12 heterodimerizing domain
The experiment in a line: drug-induced heterodimerization inside mouse T cells, with 1 µM AP21967; read out as hCD34 surface expression by flow cytometry (FIG. 9B). The text has this: In the instant example, mouse T cells were transduced with the following 2 vectors (FIG. 9A): (Vector 1) encodes a Thy1.1 reporter and a drug-activated intein-tagged antigen-binding construct comprised of a CD19-targeting scFv fused to a hCD34 affinity-tag, a CD8 hinge and transmembrane domain, an AES CL low affinity intein N terminus, an FKBP12 drug-induced heterodimerization domain (DmrA), and an E319K ER retention motif, while (Vector 2) encodes an EGFP reporter and a cytoplasmic signaling shuttle comprised of a FRB drug-induced heterodimerization domain (DmrC), an AES CL low affinity intein C terminus, a CD28 costimulatory domain, and a CD3-zeta chain. In the absence of the dimerizing drug, hCD34 expression at the cell surface is low due to presence of the ER retention motif encoded by Vector1 (FIG. 9B). […] Thus, this system enables drug-regulated splicing to regulate post-translational CAR assembly. Double-transduced cells were cultured with 1 μM A/C heterodimerizing drug and subsequently enriched by MACS sorting using anti-hCD34 magnetic beads to yield highly pure hCD34+CD19-CAR T cells (FIG. 9B). […] This methodology improves upon previous FKBP/FRB-based drug-regulated CAR systems by eliminating the FKBP/FRB proteins following trans-splicing and generating a mature CAR molecule. […]
(In general: In flow cytometry, cells or beads pass a laser one at a time.)

T1 sequence (P62942 2-108 limits assumed, one chain of several): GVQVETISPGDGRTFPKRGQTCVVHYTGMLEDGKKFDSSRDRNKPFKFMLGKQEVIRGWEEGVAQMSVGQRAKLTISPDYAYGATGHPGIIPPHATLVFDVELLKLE

B1: FRB* heterodimerization domain (DmrC) (other)
chain: MILWHEMWHEGLEEASRLYFGERNVKGMFEVLEPLHAMMERGPQTLKETSFNQAYGRDLMEAQEWCRKYMKSGNVKDLLQAWDLYYHVFRRISK
notes: also called FRB drug-induced heterodimerization domain (DmrC); FRB (DmrB)
Consider B1, for which the binding result is “binds”.

The values are drawn from patent US20250289887A1 (Memorial Sloan Kettering, published 2025).
